Measured values reported in publication PMC9482650, “Quantitative fragmentomics allow affinity mapping of interactomes” (Nature Communications, 2022).

T1: PDZD7_3, Q9H5P4
T1 sequence (Q9H5P4 857-944, limits assumed, looked up): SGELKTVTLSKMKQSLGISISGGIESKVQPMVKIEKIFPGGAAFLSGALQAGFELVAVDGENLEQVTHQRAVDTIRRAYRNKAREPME

T2: SNTG1, Q9NSN8
T2 sequence (Q9NSN8 52-150, limits assumed, looked up): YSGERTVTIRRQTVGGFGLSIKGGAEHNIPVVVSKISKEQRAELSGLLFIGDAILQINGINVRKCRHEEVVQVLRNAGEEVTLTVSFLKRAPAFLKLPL

T3: PARD3B_1, Q8TEW8
T3 sequence (Q8TEW8 196-299, limits assumed, looked up): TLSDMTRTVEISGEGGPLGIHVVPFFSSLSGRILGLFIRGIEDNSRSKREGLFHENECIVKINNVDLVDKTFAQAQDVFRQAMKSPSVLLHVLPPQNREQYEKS

T4: HTRA3, P83110
T4 sequence (P83110 354-453, limits assumed, looked up): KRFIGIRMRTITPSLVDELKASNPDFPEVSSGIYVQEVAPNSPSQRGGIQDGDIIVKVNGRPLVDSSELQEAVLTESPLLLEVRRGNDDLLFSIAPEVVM

T5: DVL3, Q92997
T5 sequence (Q92997 244-331, limits assumed, looked up): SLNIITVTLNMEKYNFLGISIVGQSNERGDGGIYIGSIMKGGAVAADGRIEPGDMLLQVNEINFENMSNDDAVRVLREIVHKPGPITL

T6: TJP3_3, O95049
T6 sequence (O95049 375-456, limits assumed, looked up): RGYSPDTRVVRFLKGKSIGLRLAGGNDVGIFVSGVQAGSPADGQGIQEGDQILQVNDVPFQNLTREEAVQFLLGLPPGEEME

T7: NHERF3_3, Q5T2W1
T7 sequence (Q5T2W1 238-333, limits assumed, looked up): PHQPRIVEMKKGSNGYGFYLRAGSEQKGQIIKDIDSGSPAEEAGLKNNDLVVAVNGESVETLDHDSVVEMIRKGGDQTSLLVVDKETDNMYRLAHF

T8: DFNB31_2, Q9P202
T8 sequence (Q9P202 274-371, limits assumed, looked up): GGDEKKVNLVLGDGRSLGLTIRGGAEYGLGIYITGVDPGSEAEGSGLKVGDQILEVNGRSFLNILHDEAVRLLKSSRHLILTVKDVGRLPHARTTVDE

T9: APBA3_1, O96018
T9 sequence (O96018 389-490, limits assumed, looked up): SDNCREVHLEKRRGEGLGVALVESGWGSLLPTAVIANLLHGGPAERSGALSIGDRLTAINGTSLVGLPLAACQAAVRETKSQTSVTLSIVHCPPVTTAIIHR

T10: SIPA1L2, Q9P2F8
T10 sequence (Q9P2F8 945-1036, limits assumed, looked up): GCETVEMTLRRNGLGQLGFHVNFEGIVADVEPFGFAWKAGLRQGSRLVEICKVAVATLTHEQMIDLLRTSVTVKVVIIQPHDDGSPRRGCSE

T11: SNTA1, Q13424
T11 sequence (Q13424 82-180, limits assumed, looked up): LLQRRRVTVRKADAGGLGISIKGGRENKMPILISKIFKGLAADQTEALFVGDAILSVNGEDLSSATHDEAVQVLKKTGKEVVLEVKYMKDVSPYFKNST

T12: APBA2_1, Q99767
T12 sequence (Q99767 563-664, limits assumed, looked up): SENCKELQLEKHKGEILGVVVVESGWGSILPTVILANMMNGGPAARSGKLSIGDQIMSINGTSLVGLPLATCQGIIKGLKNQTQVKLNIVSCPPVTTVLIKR


target: GRIP2_3, Q9C0E4; test: holdup assay; design: key: below the threshold = too weak to quantify, mostly under pKd 3.1 to 4; conditions: plain residues with an end cap or a label only (N-terminal biotin on a linker: ado-ado)
Sequence (Q9C0E4 238-339): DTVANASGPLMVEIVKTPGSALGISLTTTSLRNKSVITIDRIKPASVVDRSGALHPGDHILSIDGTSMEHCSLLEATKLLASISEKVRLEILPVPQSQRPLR

pKd	Binder
below the threshold	TSQESEDTYL [TBC1D10A, Q9BXI6]

target: ARHGEF12, Q9NZN5-2; test: holdup assay; design: key: below the threshold = too weak to quantify, mostly under pKd 3.1 to 4; conditions: plain residues with an end cap or a label only (N-terminal biotin on a linker: ado-ado)
Sequence (Q9NZN5 other isoform, or with tags, fused parts or gaps): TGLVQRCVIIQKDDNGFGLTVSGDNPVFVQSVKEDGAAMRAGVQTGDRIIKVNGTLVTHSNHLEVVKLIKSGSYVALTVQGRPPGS

pKd	Binder
4.02	TSQESEDTYL [TBC1D10A, Q9BXI6]

target: SCRIB_1, Q14160; test: holdup assay; design: key: below the threshold = too weak to quantify, mostly under pKd 3.1 to 4; conditions: plain residues with an end cap or a label only (N-terminal biotin on a linker: ado-ado)
Sequence (Q14160 718-814): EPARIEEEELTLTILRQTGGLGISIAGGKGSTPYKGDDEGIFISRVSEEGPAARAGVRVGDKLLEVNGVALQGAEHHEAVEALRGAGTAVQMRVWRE

pKd	Binder
3.99	TSQESEDTYL [TBC1D10A, Q9BXI6]

target: SCRIB_3, Q14160; test: holdup assay; design: key: below the threshold = too weak to quantify, mostly under pKd 3.1 to 4; conditions: plain residues with an end cap or a label only (N-terminal biotin on a linker: ado-ado)
Sequence (Q14160 999-1103): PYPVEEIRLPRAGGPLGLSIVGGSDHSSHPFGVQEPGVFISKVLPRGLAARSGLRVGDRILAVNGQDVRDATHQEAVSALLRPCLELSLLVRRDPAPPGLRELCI

pKd	Binder
4.16	TSQESEDTYL [TBC1D10A, Q9BXI6]

target: T1, PDZD7_3, Q9H5P4; test: holdup assay; design: key: below the threshold = too weak to quantify, mostly under pKd 3.1 to 4; conditions: plain residues with an end cap or a label only (N-terminal biotin on a linker: ado-ado)

pKd	Binder
3.9	TSQESEDTYL [TBC1D10A, Q9BXI6]

target: T2, SNTG1, Q9NSN8; test: holdup assay; design: key: below the threshold = too weak to quantify, mostly under pKd 3.1 to 4; conditions: plain residues with an end cap or a label only (N-terminal biotin on a linker: ado-ado)

pKd	Binder
below the threshold	TSQESEDTYL [TBC1D10A, Q9BXI6]

target: NHERF4_2, Q86UT5; test: holdup assay; design: key: below the threshold = too weak to quantify, mostly under pKd 3.1 to 4; conditions: plain residues with an end cap or a label only (N-terminal biotin on a linker: ado-ado)
Sequence (Q86UT5 220-308): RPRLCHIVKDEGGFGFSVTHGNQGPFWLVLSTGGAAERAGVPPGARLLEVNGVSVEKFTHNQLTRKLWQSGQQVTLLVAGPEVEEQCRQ

pKd	Binder
below the threshold	TSQESEDTYL [TBC1D10A, Q9BXI6]

target: GORASP1, Q9BQQ3; test: holdup assay; design: key: below the threshold = too weak to quantify, mostly under pKd 3.1 to 4; conditions: plain residues with an end cap or a label only (N-terminal biotin on a linker: ado-ado)
Sequence (Q9BQQ3 1-208): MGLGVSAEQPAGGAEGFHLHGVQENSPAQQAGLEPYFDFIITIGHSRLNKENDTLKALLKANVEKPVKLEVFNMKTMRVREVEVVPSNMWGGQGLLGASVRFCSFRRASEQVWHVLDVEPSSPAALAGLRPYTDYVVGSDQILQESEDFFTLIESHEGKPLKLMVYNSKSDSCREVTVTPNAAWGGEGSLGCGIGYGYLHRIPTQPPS

pKd	Binder
below the threshold	TSQESEDTYL [TBC1D10A, Q9BXI6]

target: TJP1_2, Q07157; test: holdup assay; design: key: below the threshold = too weak to quantify, mostly under pKd 3.1 to 4; conditions: plain residues with an end cap or a label only (N-terminal biotin on a linker: ado-ado)
Sequence (Q07157 181-274): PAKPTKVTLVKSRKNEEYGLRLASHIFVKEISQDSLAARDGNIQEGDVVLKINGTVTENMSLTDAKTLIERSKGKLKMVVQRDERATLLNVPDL

pKd	Binder
below the threshold	TSQESEDTYL [TBC1D10A, Q9BXI6]

target: CASK, O14936; test: holdup assay; design: key: below the threshold = too weak to quantify, mostly under pKd 3.1 to 4; conditions: plain residues with an end cap or a label only (N-terminal biotin on a linker: ado-ado)
Sequence (O14936 487-570): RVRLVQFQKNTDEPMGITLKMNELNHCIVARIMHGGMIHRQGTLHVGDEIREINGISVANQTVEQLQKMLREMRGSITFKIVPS

pKd	Binder
below the threshold	TSQESEDTYL [TBC1D10A, Q9BXI6]

target: T3, PARD3B_1, Q8TEW8; test: holdup assay; design: key: below the threshold = too weak to quantify, mostly under pKd 3.1 to 4; conditions: plain residues with an end cap or a label only (N-terminal biotin on a linker: ado-ado)

pKd	Binder
4.58	TSQESEDTYL [TBC1D10A, Q9BXI6]

target: PARD3_3, Q8TEW0; test: holdup assay; design: key: below the threshold = too weak to quantify, mostly under pKd 3.1 to 4; conditions: plain residues with an end cap or a label only (N-terminal biotin on a linker: ado-ado)
Sequence (Q8TEW0 582-685): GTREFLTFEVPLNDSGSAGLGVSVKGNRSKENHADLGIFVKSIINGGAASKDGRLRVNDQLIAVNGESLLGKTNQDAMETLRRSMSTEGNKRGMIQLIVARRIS

pKd	Binder
4.63	TSQESEDTYL [TBC1D10A, Q9BXI6]

target: T4, HTRA3, P83110; test: holdup assay; design: key: below the threshold = too weak to quantify, mostly under pKd 3.1 to 4; conditions: plain residues with an end cap or a label only (N-terminal biotin on a linker: ado-ado)

pKd	Binder
below the threshold	TSQESEDTYL [TBC1D10A, Q9BXI6]

target: GRIP2_7, Q9C0E4; test: holdup assay; design: key: below the threshold = too weak to quantify, mostly under pKd 3.1 to 4; conditions: plain residues with an end cap or a label only (N-terminal biotin on a linker: ado-ado)
Sequence (Q9C0E4 934-1023): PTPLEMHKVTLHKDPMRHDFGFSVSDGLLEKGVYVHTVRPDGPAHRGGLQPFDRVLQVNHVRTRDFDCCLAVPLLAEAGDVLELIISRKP

pKd	Binder
below the threshold	TSQESEDTYL [TBC1D10A, Q9BXI6]

target: T5, DVL3, Q92997; test: holdup assay; design: key: below the threshold = too weak to quantify, mostly under pKd 3.1 to 4; conditions: plain residues with an end cap or a label only (N-terminal biotin on a linker: ado-ado)

pKd	Binder
below the threshold	TSQESEDTYL [TBC1D10A, Q9BXI6]

target: T6, TJP3_3, O95049; test: holdup assay; design: key: below the threshold = too weak to quantify, mostly under pKd 3.1 to 4; conditions: plain residues with an end cap or a label only (N-terminal biotin on a linker: ado-ado)

pKd	Binder
below the threshold	TSQESEDTYL [TBC1D10A, Q9BXI6]

target: T7, NHERF3_3, Q5T2W1; test: holdup assay; design: key: below the threshold = too weak to quantify, mostly under pKd 3.1 to 4; conditions: plain residues with an end cap or a label only (N-terminal biotin on a linker: ado-ado)

pKd	Binder
3.59	TSQESEDTYL [TBC1D10A, Q9BXI6]

target: TJP2_1, Q9UDY2; test: holdup assay; design: key: below the threshold = too weak to quantify, mostly under pKd 3.1 to 4; conditions: plain residues with an end cap or a label only (N-terminal biotin on a linker: ado-ado)
Sequence (Q9UDY2 24-128): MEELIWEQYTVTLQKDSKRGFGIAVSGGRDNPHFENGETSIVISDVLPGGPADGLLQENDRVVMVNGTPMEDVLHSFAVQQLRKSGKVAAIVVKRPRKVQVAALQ

pKd	Binder
below the threshold	TSQESEDTYL [TBC1D10A, Q9BXI6]

target: MAGI1_2, Q96QZ7; test: holdup assay; design: key: below the threshold = too weak to quantify, mostly under pKd 3.1 to 4; conditions: plain residues with an end cap or a label only (N-terminal biotin on a linker: ado-ado)
Sequence (Q96QZ7 456-580): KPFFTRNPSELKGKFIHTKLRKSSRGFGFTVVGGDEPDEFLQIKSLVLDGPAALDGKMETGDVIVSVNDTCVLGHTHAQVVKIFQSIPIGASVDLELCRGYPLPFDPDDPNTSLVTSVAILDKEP

pKd	Binder
below the threshold	TSQESEDTYL [TBC1D10A, Q9BXI6]

target: LIMK2, P53671; test: holdup assay; design: key: below the threshold = too weak to quantify, mostly under pKd 3.1 to 4; conditions: plain residues with an end cap or a label only (N-terminal biotin on a linker: ado-ado)
Sequence (P53671 143-248): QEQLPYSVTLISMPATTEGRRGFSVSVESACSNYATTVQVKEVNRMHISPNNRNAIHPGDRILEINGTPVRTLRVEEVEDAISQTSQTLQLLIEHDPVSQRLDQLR

pKd	Binder
below the threshold	TSQESEDTYL [TBC1D10A, Q9BXI6]

target: T8, DFNB31_2, Q9P202; test: holdup assay; design: key: below the threshold = too weak to quantify, mostly under pKd 3.1 to 4; conditions: plain residues with an end cap or a label only (N-terminal biotin on a linker: ado-ado)

pKd	Binder
below the threshold	TSQESEDTYL [TBC1D10A, Q9BXI6]

target: DLG2_2, Q15700; test: holdup assay; design: key: below the threshold = too weak to quantify, mostly under pKd 3.1 to 4; conditions: plain residues with an end cap or a label only (N-terminal biotin on a linker: ado-ado)
Sequence (Q15700 189-283): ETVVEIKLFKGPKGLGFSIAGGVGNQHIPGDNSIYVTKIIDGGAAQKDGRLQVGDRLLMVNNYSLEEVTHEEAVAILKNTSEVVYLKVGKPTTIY

pKd	Binder
below the threshold	TSQESEDTYL [TBC1D10A, Q9BXI6]

target: T9, APBA3_1, O96018; test: holdup assay; design: key: below the threshold = too weak to quantify, mostly under pKd 3.1 to 4; conditions: plain residues with an end cap or a label only (N-terminal biotin on a linker: ado-ado)

pKd	Binder
below the threshold	TSQESEDTYL [TBC1D10A, Q9BXI6]

target: T10, SIPA1L2, Q9P2F8; test: holdup assay; design: key: below the threshold = too weak to quantify, mostly under pKd 3.1 to 4; conditions: plain residues with an end cap or a label only (N-terminal biotin on a linker: ado-ado)

pKd	Binder
below the threshold	TSQESEDTYL [TBC1D10A, Q9BXI6]

target: T11, SNTA1, Q13424; test: holdup assay; design: key: below the threshold = too weak to quantify, mostly under pKd 3.1 to 4; conditions: plain residues with an end cap or a label only (N-terminal biotin on a linker: ado-ado)

pKd	Binder
3.91	TSQESEDTYL [TBC1D10A, Q9BXI6]

target: T12, APBA2_1, Q99767; test: holdup assay; design: key: below the threshold = too weak to quantify, mostly under pKd 3.1 to 4; conditions: plain residues with an end cap or a label only (N-terminal biotin on a linker: ado-ado)

pKd	Binder
below the threshold	TSQESEDTYL [TBC1D10A, Q9BXI6]
